Data published in publication PMC6538167.

Target: Sodium/potassium-transporting ATPase subunit alpha-1 (human (endogenous in frontal lobe tissue)) (UniProt P05023)

SST14 (peptide)
total ^86Rb^+ uptake in HEK293 cells in the presence of SST14 (50 μM), compared to controls: 74.4 % of control | total ^86Rb^+ uptake in ReN (ReNcell VM) cells in the presence of SST14 (50 μM), compared to controls: 91.5 % of control | total ^86Rb^+ uptake in mouse N2a cells in the presence of SST14 (50 μM), compared to controls: 53.6 % of control
